Laboratory results from paper PMC2199121.

Target: C57BL/6 and BALB/c IL-4Rs on transfected TF-1 cells (association rates told for both together)
Assay: radioligand binding

kon: 3.33e+06 to 4.33e+06 M⁻¹ s⁻¹
Substance: iodinated recombinant murine IL-4 (125I-IL-4) (from UniProt P07750 21-140) (ligand)
